# Experimental data taken from paper doi:10.1101/351726 (bioRxiv, 2018).
# How the values were obtained:
# [1] = target: the molecule itself; assay: photon counting histogram
# [2] = target: the molecule itself; assay: single-molecule fluorescence brightness analysis
protein,measurement,setting,value
"MyD88 TIR domain (159-296 a.a) fused to GFP at the N-terminus (domain or fragment, human, UniProt Q99836 159-296, looked up) ERFDAFICYCPSDIQFVQEMIRQLEQTNYRLKLCVSDRDVLPGTCVWSIASELIEKRCRRMVVVVSDDYLQSKECDFQTKFALSLSPGAHQKRLIPIKYKAMKKEFPSILRFITVCDYTNPCTKSWFWTRLAKALSLP",stoichiometry N,[1],3
same,stoichiometry N,[2],~3 GFP fluorophores
"MyD88 death domain (1-117 a.a) fused to GFP at the N-terminus (domain or fragment, human, UniProt Q99836 1-117, looked up) MAAGGPGAGSAAPVSSTSSLPLAALNMRVRRRLSLFLNVRTQVAADWTALAEEMDFEYLEIRQLETQADPTGRLLDAWQGRPGASVGRLLELLTKLGRDDVLLELGPSIEEDCQKYI",stoichiometry N,[1],8
same,stoichiometry N,[2],8 to 10 GFP molecules
